In patent publication US20250154265A1 (BEIGENE, published 2025):
Changes are numbered by the printed parent chain. Blank lines part the entries; values can stand above or below the binder they belong to.

Assays:
Assay in all cases: cell-based or functional assay
[1] = biological target: T1, human cMET on cells (Hs746T, H596, EBC-1) (human, UniProt P08581 25-1390)
[2] = biological target: T1, human cMET on cells (Hs746T, H596, …); remark: listed apart in the source
[3] = biological target: T1, human cMET on cells (Hs746T, H596, …); remark: listed apart in the source

T1 sequence (P08581 25-1390 limits assumed): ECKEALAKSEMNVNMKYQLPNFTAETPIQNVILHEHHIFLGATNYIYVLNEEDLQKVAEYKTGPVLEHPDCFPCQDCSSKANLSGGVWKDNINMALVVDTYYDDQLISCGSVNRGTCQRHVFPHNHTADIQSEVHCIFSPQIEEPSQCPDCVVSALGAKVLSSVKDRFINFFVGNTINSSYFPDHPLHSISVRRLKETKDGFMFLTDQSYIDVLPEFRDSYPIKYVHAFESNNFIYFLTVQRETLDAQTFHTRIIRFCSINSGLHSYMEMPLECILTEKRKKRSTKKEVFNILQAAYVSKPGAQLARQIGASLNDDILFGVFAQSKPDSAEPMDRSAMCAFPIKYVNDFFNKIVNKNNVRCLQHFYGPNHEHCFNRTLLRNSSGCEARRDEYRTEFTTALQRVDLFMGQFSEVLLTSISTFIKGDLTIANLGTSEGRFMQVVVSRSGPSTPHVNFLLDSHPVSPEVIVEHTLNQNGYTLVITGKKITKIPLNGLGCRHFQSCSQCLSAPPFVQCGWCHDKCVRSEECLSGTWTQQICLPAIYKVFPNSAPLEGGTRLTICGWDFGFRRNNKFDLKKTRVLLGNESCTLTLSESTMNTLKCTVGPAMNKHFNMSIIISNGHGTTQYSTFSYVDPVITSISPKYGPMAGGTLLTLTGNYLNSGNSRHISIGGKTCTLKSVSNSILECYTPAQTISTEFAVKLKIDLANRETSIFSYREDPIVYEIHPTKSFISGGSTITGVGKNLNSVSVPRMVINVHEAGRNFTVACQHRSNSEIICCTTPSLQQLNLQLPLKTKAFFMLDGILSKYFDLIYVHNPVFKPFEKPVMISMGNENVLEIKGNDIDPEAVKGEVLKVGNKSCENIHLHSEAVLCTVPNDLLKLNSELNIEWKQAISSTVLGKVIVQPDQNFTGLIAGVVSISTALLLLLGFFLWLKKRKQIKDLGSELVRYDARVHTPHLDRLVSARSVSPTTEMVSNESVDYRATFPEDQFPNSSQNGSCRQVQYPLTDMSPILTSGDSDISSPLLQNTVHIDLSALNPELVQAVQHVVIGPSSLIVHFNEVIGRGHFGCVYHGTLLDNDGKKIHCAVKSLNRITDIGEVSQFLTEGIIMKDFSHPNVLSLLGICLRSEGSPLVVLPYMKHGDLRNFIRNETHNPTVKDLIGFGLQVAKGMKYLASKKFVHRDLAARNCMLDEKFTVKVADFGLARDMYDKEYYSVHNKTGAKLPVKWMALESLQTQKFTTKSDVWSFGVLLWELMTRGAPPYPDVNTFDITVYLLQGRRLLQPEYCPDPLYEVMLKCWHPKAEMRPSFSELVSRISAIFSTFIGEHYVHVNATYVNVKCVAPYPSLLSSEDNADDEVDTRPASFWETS

- IC50, inhibition of ERK phospho-T202/Y204 in Hs746T cells [1]: 500 pM
B1: 06BS03 (bispecific antibody, V domains shown)
VH 1: QVQLVESGGGVVQPGKSLRLSCAASGFTFSSSGLHWVRQAPGKGLEWVAVISYDTSNKYYADSVKGRFTISRDNSKNTLYLQMNSLRAEDTAVYYCAKDLNRGYDWGFDYWGQGTLVTVSS
VH 2: QFQLQESGPGLVKPSETLSLTCTVSGGSISTSSYYWGWIRQPPGKGLEWIGTIYYSGTTYYNPSLKSRVTISVDTSKNQFSLKLKSVTAADTSIYYCARHWPKYNSWFDPWGQGILVTVSS
VL: not shown

- IC50, inhibition of HGF-induced ERK phospho-T202/Y204 in H596 cells [2]: > 250000 pM
B2: 063Ab07710 (antibody, human IgG1, kappa, V domains shown)
VH: QVQLVESGGGVVQPGRSLRLSCAASGFTFSSYGMHWVRQAPGKGLEWVAVISNDGSYKYYVDSVTGRFTISRDNSKNTLYLQMNSLRAEDTAVYYCAKDRNMGYSGWFDYWGQGSLVTVSS
VL: not shown

- Imax %, inhibition of HGF-induced ERK phospho-T202/Y204 in H596 cells [3]: 90%
B3: 06BS02 (bispecific antibody, V domains shown)
VH 1: B2 VH with Y32H, N53Y, G55E, Y57D, V61A, T65K, N74H, A97V, F108L, S115T
VH 2: B1 VH 2 with Y55F, K66T, T70S, I71M, K85N, I115F
VL: not shown
